Source: patent publication US20250230251A1 (Bristol-Myers Squibb, published 2025)
Where two headings read alike, the source gives them in different places.

Tests used:
huIL-18Rβ-HisAvi [1] = biological target: T1, huIL-18Rβ-HisAvi (human, UniProt O95256 20-356, biotinylated in the Octet blocking assay); assay: SPR T200, mAb on anti-hFc, 37C, pH 7.4
T1 construct: Soluble analyte in all SPR runs; captured on streptavidin sensors in the Octet assay; also called human IL-18Rβ; human IL-18Rβ-Avi-His
T1 sequence: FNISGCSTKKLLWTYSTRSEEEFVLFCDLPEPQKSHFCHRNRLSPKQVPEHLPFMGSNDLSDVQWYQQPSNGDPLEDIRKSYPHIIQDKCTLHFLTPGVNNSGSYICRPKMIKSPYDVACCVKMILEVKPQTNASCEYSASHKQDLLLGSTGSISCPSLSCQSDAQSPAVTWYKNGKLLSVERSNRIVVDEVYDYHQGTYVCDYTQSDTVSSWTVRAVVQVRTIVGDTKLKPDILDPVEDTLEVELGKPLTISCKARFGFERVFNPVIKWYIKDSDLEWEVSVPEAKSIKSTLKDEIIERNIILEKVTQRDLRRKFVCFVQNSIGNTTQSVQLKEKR

cyIL-18Rβ-HisAvi [2] = biological target: T2, cyIL-18Rβ-HisAvi (cynomolgus monkey); assay: SPR T200, mAb on anti-hFc, 37C, pH 7.4
T2 construct: Soluble analyte in SPR; also called cyno IL-18Rβ; cynomolgus monkey IL-18Rβ
T2 chain: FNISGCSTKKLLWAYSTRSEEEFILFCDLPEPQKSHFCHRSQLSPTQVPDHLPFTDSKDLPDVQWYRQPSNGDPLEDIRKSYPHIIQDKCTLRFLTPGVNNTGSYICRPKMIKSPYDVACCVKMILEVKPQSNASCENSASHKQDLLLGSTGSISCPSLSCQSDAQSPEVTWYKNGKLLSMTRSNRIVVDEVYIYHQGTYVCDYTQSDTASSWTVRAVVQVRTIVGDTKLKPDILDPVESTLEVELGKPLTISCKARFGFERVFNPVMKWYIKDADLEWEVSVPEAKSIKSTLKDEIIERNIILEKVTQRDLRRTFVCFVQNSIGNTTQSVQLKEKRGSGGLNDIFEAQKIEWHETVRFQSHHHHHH

huIL-18Rβ-HisAvi [3] = biological target: T1, huIL-18Rβ-HisAvi; assay: SPR T200, mAb on anti-hFc, 37C, pH 6
cyIL-18Rβ-HisAvi [4] = biological target: T2, cyIL-18Rβ-HisAvi; assay: SPR T200, mAb on anti-hFc, 37C, pH 6
human IL-18Rβ on cells [5] = biological target: T3, human IL-18Rβ on cells (human, UniProt O95256 20-599); assay: cell-based or functional assay
T3 sequence: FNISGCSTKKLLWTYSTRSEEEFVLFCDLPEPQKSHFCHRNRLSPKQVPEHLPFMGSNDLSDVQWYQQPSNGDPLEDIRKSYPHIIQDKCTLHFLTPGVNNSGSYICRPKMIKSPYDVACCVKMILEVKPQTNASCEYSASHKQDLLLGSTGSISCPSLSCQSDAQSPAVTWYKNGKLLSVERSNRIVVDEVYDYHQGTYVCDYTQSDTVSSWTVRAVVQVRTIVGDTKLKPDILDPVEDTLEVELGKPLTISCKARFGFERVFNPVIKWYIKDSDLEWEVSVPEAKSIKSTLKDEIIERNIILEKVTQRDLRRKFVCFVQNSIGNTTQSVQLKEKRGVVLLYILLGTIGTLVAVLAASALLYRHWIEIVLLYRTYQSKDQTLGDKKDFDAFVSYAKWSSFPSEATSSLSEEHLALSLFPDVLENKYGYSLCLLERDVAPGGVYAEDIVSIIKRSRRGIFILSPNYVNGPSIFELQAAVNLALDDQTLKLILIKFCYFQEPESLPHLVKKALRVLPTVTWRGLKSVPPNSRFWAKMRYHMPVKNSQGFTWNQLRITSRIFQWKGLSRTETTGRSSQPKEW

huIL-18Rβ-HisAvi [6] = biological target: T1, huIL-18Rβ-HisAvi; assay: SPR T200, pH 7.4 and pH 6
huIL-18Rβ-HisAvi [7] = biological target: T1, huIL-18Rβ-HisAvi; assay: SPR T200, pH 7.4; sample stored at pH 6, 4 w 40C
human IL-18Rβ on cells [8] = biological target: T3, human IL-18Rβ on cells; assay: cell-based or functional assay; remark: listed apart in the source
huIL-18Rβ-HisAvi [9] = biological target: T1, huIL-18Rβ-HisAvi; assay: SPR T200, mAb on anti-hFc, 37C, pH 7.4; sample stored at pH 6, T0
huIL-18Rβ-HisAvi [10] = biological target: T1, huIL-18Rβ-HisAvi; assay: SPR Biacore T200, mAb captured on anti-human Fc, huIL-18Rβ-HisAvi as analyte, PBST pH 5.5, 37 °C, 1:1 Binding fit
huIL-18Rβ-HisAvi [11] = biological target: T1, huIL-18Rβ-HisAvi; assay: SPR T200, pH 7.4; sample stored at pH 6, 4 w 4C
huIL-18Rβ-HisAvi [12] = biological target: T1, huIL-18Rβ-HisAvi; assay: SPR screen, 1:1 fit
huIL-18Rβ-HisAvi [13] = biological target: T1, huIL-18Rβ-HisAvi; assay: SPR T200, pH 5 against pH 7.4
huIL-18Rβ-HisAvi [14] = biological target: T1, huIL-18Rβ-HisAvi; assay: SPR T200, pH 7.4; sample stored at pH 8, 4 w 4C
[15] = biological target: the molecule itself; assay: clone self-interaction BLI, antibody on AHQ sensor against 1 µM of the same antibody
huIL-18Rβ-HisAvi [16] = biological target: T1, huIL-18Rβ-HisAvi; assay: SPR Biacore T200, mAb captured on anti-human Fc, huIL-18Rβ-HisAvi as analyte, PBST pH 6.0, 37 °C, 1:1 Binding fit
huIL-18Rβ-HisAvi [17] = biological target: T1, huIL-18Rβ-HisAvi; assay: SPR T200, pH 7.4; sample stored at pH 8, 4 w 40C
huIL-18Rβ-HisAvi [18] = biological target: T1, huIL-18Rβ-HisAvi; assay: SPR T200, pH 7.4; sample stored at pH 8, T0
huIL-18Rβ-HisAvi [19] = biological target: T1, huIL-18Rβ-HisAvi; assay: SPR T200, mAb on anti-hFc, 37C, pH 7.4; remark: listed apart in the source
huIL-18Rβ-HisAvi [20] = biological target: T1, huIL-18Rβ-HisAvi; assay: SPR T200, mAb on anti-hFc, 37C, pH 5
human IL-18Rβ on cells [21] = biological target: T3, human IL-18Rβ on cells; assay: cell-based or functional assay; remark: listed apart in the source

B1: P20-V4 (antibody, human IgG1, kappa, name in Kabat numbering)
heavy: QVQLQESGPGLVKPSETLSLTCTVSGGSINNYYWSWIRQPPGKGLEWIGYIFYSGTTNYNPSLKSRVTISVDTSKNQFSLKLSSVTAADTAVYYCARDVGIAARNSYYYVMDVWGQGTTVTVSSASTKGPSVFPLAPSSKSTSGGTAALGCLVKDYFPEPVTVSWNSGALTSGVHTFPAVLQSSGLYSLSSVVTVPSSSLGTQTYICNVNHKPSNTKVDKRVEPKSCDKTHTCPPCPAPEAEGAPSVFLFPPKPKDTLMISRTPEVTCVVVDVSHEDPEVKFNWYVDGVEVHNAKTKPREEQYNSTYRVVSVLTVLHQDWLNGKEYKCKVSNKALPAPIEKTISKAKGQPREPQVYTLPPSREEMTKNQVSLTCLVKGFYPSDIAVEWESNGQPENNYKTTPPVLDSDGSFFLYSKLTVDKSRWQQGNVFSCSVMHEALHNHYTQKSLSLSPG
light: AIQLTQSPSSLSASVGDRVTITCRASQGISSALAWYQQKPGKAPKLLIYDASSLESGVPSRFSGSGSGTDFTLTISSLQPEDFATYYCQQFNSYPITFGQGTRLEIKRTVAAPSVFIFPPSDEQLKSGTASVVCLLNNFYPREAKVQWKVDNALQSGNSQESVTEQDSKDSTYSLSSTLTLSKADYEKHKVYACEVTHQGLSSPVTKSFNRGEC
notes: built from the chains of the parent P20 with the printed mutations
For B1, the Kd (huIL-18Rβ-HisAvi [1]) was 42 nM, the koff (huIL-18Rβ-HisAvi [1]) was 0.0018 s⁻¹ and the kon (huIL-18Rβ-HisAvi [1]) was 44000 M⁻¹ s⁻¹. It also gave a Kd (cyIL-18Rβ-HisAvi [2]) of 88 nM, a koff (cyIL-18Rβ-HisAvi [2]) of 0.002 s⁻¹ and a kon (cyIL-18Rβ-HisAvi [2]) of 23000 M⁻¹ s⁻¹. The Kd (huIL-18Rβ-HisAvi [3]) was 14 nM, the koff (huIL-18Rβ-HisAvi [3]) was 0.0037 s⁻¹ and the kon (huIL-18Rβ-HisAvi [3]) was 270000 M⁻¹ s⁻¹. It also gave a Kd (cyIL-18Rβ-HisAvi [4]) of 42 nM, a koff (cyIL-18Rβ-HisAvi [4]) of 0.002 s⁻¹ and a kon (cyIL-18Rβ-HisAvi [4]) of 48000 M⁻¹ s⁻¹. The “IC50, LPS+IL-12 dependent IFNg production, human whole blood” value (“IC50 … human whole blood” for short) (human IL-18Rβ on cells [5]) was 37.6 nM and the “fold weaker binding than the parent P20” value (huIL-18Rβ-HisAvi [6]) was 100 fold.

B2: P8 (antibody, human IgG1, kappa)
heavy: QVQLVQSGAEVKKPGASVRVSCKASGYTFTSYYMHWVRQAPGQGLEWMGIINPRGGYTTYAQKFQGRVTMTRDTSTSTVYMELSSLRSEDTAVYYCAKEGRVSPTDYYGMDVWGQGTTVTVSSASTKGPSVFPLAPSSKSTSGGTAALGCLVKDYFPEPVTVSWNSGALTSGVHTFPAVLQSSGLYSLSSVVTVPSSSLGTQTYICNVNHKPSNTKVDKRVEPKSCDKTHTCPPCPAPEAEGAPSVFLFPPKPKDTLMISRTPEVTCVVVDVSHEDPEVKFNWYVDGVEVHNAKTKPREEQYNSTYRVVSVLTVLHQDWLNGKEYKCKVSNKALPAPIEKTISKAKGQPREPQVYTLPPSREEMTKNQVSLTCLVKGFYPSDIAVEWESNGQPENNYKTTPPVLDSDGSFFLYSKLTVDKSRWQQGNVFSCSVMHEALHNHYTQKSLSLSPG
light: not shown
notes: Human IgG
B2 was tested, and the Kd (huIL-18Rβ-HisAvi [7]) was 0.6 nM, the koff (huIL-18Rβ-HisAvi [7]) was 0.00044 s⁻¹ and the kon (huIL-18Rβ-HisAvi [7]) was 730000 M⁻¹ s⁻¹. It also gave a Kd (huIL-18Rβ-HisAvi [1]) of 0.96 nM, a koff (huIL-18Rβ-HisAvi [1]) of 0.0005 s⁻¹ and a kon (huIL-18Rβ-HisAvi [1]) of 520000 M⁻¹ s⁻¹. The “IC50, IL-18-induced IFNγ release, KG-1 cells” value (human IL-18Rβ on cells [8]) was 0.3 nM, the Kd (huIL-18Rβ-HisAvi [9]) was 0.83 nM and the koff (huIL-18Rβ-HisAvi [9]) was 0.00047 s⁻¹. The kon (huIL-18Rβ-HisAvi [9]) was 570000 M⁻¹ s⁻¹, the Kd (huIL-18Rβ-HisAvi [3]) was 0.18 nM and the koff (huIL-18Rβ-HisAvi [3]) was 0.00024 s⁻¹. The kon (huIL-18Rβ-HisAvi [3]) was 1.4e+06 M⁻¹ s⁻¹, the Kd (huIL-18Rβ-HisAvi [10]) was 1.08 nM and the koff (huIL-18Rβ-HisAvi [10]) was 0.000511 s⁻¹. For the same binder, the kon (huIL-18Rβ-HisAvi [10]) was 472000 M⁻¹ s⁻¹, the Kd (huIL-18Rβ-HisAvi [11]) was 0.8 nM and the koff (huIL-18Rβ-HisAvi [11]) was 0.00045 s⁻¹. For the same binder, the kon (huIL-18Rβ-HisAvi [11]) was 570000 M⁻¹ s⁻¹, the Kd (huIL-18Rβ-HisAvi [12]) was 0.094 nM and the “KD ratio (KD pH 5/KD pH 7)” value (huIL-18Rβ-HisAvi [13]) was 0.33. For the same binder, the “kd ratio (kd pH 5/kd pH 7)” value (huIL-18Rβ-HisAvi [13]) was 0.57, the Kd (huIL-18Rβ-HisAvi [14]) was 0.81 nM and the koff (huIL-18Rβ-HisAvi [14]) was 0.00043 s⁻¹. The kon (huIL-18Rβ-HisAvi [14]) was 520000 M⁻¹ s⁻¹, the “Average CSI-BLI ΔResponse” value [15] was -0.01 nm and the Kd (huIL-18Rβ-HisAvi [16]) was 1.24 nM. The koff (huIL-18Rβ-HisAvi [16]) was 0.000504 s⁻¹, the kon (huIL-18Rβ-HisAvi [16]) was 405000 M⁻¹ s⁻¹ and the “IC50 … human whole blood” value (human IL-18Rβ on cells [5]) was 1.12 nM. The Kd (huIL-18Rβ-HisAvi [17]) was 0.78 nM, the koff (huIL-18Rβ-HisAvi [17]) was 0.00046 s⁻¹ and the kon (huIL-18Rβ-HisAvi [17]) was 590000 M⁻¹ s⁻¹. The Kd (huIL-18Rβ-HisAvi [18]) was 0.85 nM, the koff (huIL-18Rβ-HisAvi [18]) was 0.00046 s⁻¹ and the kon (huIL-18Rβ-HisAvi [18]) was 540000 M⁻¹ s⁻¹. It also gave a Kd (huIL-18Rβ-HisAvi [19]) of 1.2 nM, a koff (huIL-18Rβ-HisAvi [19]) of 0.00038 s⁻¹ and a kon (huIL-18Rβ-HisAvi [19]) of 310000 M⁻¹ s⁻¹. It also gave a Kd (huIL-18Rβ-HisAvi [20]) of 0.41 nM, a koff (huIL-18Rβ-HisAvi [20]) of 0.00022 s⁻¹ and a kon (huIL-18Rβ-HisAvi [20]) of 530000 M⁻¹ s⁻¹. For the same binder, the “IC50 … human whole blood” value (human IL-18Rβ on cells [21]) was 0.3 nM and the “y-max, LPS+IL-12 dependent IFNg production, human whole blood” value (human IL-18Rβ on cells [21]) was 98%.
